System: MS2 coat protein
Experiment: apparent KD of MS2 coat protein; designed switch direction (-1 OFF switch, 1 ON switch): -1; higher = weaker reporter binding
Procedure, shortened: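 Designed RNA switches with common flanks were transcribed on Illumina chips by stalled E. coli RNA polymerase and titrated with SNAP-549-labelled MS2 coat protein, from 0.7 or 1.5 nM doubling to 3 µM, in Tris-HCl pH 7.5 buffer with KCl, MgCl2, BSA, DTT, tRNA and Tween-20. Steps lasted 0.8–1.5 h (lowest) to 10–20 min (highest). Titrations ran without input, with 200 uM small-molecule ligand, or with an oligonucleotide input. Normalised cluster fluorescence was curve-fitted, and apparent KD is the per-design median over clusters.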

[1] = Eterna round: R95, input ligand: FMN 200 uM
[2] = Eterna round: R95, input ligand: microRNA oligo, concentration not stated
[3] = Eterna round: R95, input ligand: none
[4] = input ligand: microRNA oligo, concentration not stated

Sequence | apparent KD of MS2 coat protein [1] | apparent KD of MS2 coat protein [2] | apparent KD of MS2 coat protein [3] | apparent KD of MS2 coat protein (input ligand: FMN 200 uM) | apparent KD of MS2 coat protein (input ligand: none) | apparent KD of MS2 coat protein [4]
GGUACUAACACGGAAGUGUUAGUACUAUAAGCUUGUGUUACAUGAGGAUCACCCAUGUCCUCAUAAGCUCGUCUUAU [Mat - Sensor v3 - Turn-off var 2 - D75] (puzzle: Sensor v3, turn-off variant 2) | 93.5 nM | 38.1 nM | 90.7 nM | – | – | –
GUGCUAUGAGGAUAUACGUUGGUGGGCAUCUGUGUGCUCCUACAUGAGGAUCACCCAUGUAGAAGGCAUGUCAC [LRO-Excl2-20] (puzzle: Exclusion 2) | – | 11.9 nM | – | – | – | –
AAAUUCAGAGGAUAUGCGCAUAGAUAAGACUUUGUUUCUUAACAUGAGGAUCACCCAUGUAGAAGGCUGUACAA [Ex2 #68] (Eterna round: R97, puzzle: Exclusion 2) | – | – | – | 16.1 nM | 13.4 nM | –
CAAAGACCGGCAGGAUAUUGACCCAGAACAUGAGGAUCACCCAUGUCAACAAGGUUGGACCAGGGCGAGAAGGGCCACGCCAAA [Eternabot solution 22] (Eterna round: R96, puzzle: Exclusion NG 2) | – | – | – | 12.3 nM | 22.1 nM | 12.5 nM
ACGUCCUUGGUAAGGAUAUCGAUGGAGGCGAUCCACGAGAAGGUACAUGAGGAUCACCCAUGUAUACGAAUACG [Eternabot (L1) Solution 94] (Eterna round: R97, puzzle: Brourd's mod of Exclusion 4) | – | – | – | 18.4 nM | 17.8 nM | –
UUGCAGUCGUCAGGAUAUAGUAUUACGGCCUUUUAUUUUUUCAUACAUGAGGAUCACCCAUGUCGCUAGAAGGGAUUAUCGAUU [salish99_ExNG2_r04_104] (Eterna round: R96, puzzle: Exclusion NG 2) | – | – | – | 39.6 nM | 41.4 nM | 31.6 nM
ACAUGAGGAUCACCCAUGUUUGGCUGGUUCUCUCCGGCUGUCGAGGAUAUAGUCCGGUAUCCGCGCUAGAAGGUGAGGGCUGGC [Aenatbe mod 6] (Eterna round: R96, puzzle: Exclusion NG 3) | – | – | – | 17 nM | 16.1 nM | 12.3 nM
CUAGAUCUUCGGAUCUAGUACAUGAGGAUCACCCAUGUGACGAGUAGAUCCUCAAACAAGCUUUUUGCUCGUCUUAU [Sensor v3 - Turn-off variant 1 - 20] (Eterna round: R96, puzzle: Sensor v3, turn-off variant 1) | – | – | – | 132 nM | 194 nM | 16.4 nM
AUAUAUAGUGUGAGGAUAUGCUGGUCCUUGGAUCAGCAGAAGGCACAUGAGGAUCACCCAUGUAGUUUAUUUUA [Mat - Exclusion 4 - JL Mod - D1] (puzzle: Brourd's mod of Exclusion 4) | – | 29.3 nM | – | – | – | –
AGGUGCUUCUGGAAACAUGAGGAUCACCCAUGUUGAGUUAGCGAGGAUAUCGGUAACAAUUGUUAUGAGAAGGCGCAAACCAGA [Ex NG3 #36] (Eterna round: R96, puzzle: Exclusion NG 3) | – | – | – | 17 nM | 20.7 nM | 12.5 nM
GAAAGGGUAGGAUAUACGAAAAAAAAGGGUAGAAAAAAAACACAUGAGGAUCACCCAUGUAGAAGGACCAAAAG [salish99_ex2_r3_033] (puzzle: Exclusion 2) | 40.2 nM | 30.9 nM | 27.2 nM | – | – | –
CCUCAACAUGAGGAUCACCCAUGUCAGGAUAUGCGAAUUUCAUCAAAAGAUGAAAUUUGCAGAAGGGACUAAGC [Omei Ex1 A33] (Eterna round: R97, puzzle: Exclusion 1) | – | – | – | 303 nM | 133 nM | –
GAGCAGGAAGGAUAUACAUGAGGAUCACCCAUGUACCAUCAAGGCUUUGAUUUUCACGGUAGAAGGUCCCAAUA [Sotece] (puzzle: Exclusion 3) | – | 34.8 nM | – | – | – | –
UAUUUAUAUGAAGGAUAUACUUAACAUGAGGAUCACCCAUGUGGUGUUGUGAGUGAGUGAGUUUAGUAGAAGGUCAAUUCUUUU [JMF's solution 96] (Eterna round: R96, puzzle: Exclusion NG 2) | – | – | – | 893 nM | 448 nM | 415 nM
AGUACUAACACGGAUGUGUUAGUACAAUAAGCUUGUGAAACAUGAGGAUCACCCAUGUCCUCAUAAGCUCGUCUUAU [salish99_TOv2_r3_067] (puzzle: Sensor v3, turn-off variant 2) | 15.5 nM | 677 nM | 14.7 nM | – | – | –
GUUGUUUAUGUAGGAUAUGCCUGGCGUGCCUUUGCAGAAGGACAUGAGGAUCACCCAUGUAACAUGAGGCUCACCCAUGUCGCG [salish99_ExNG1_r04_109] (Eterna round: R96, puzzle: Exclusion NG 1) | – | – | – | 438 nM | 277 nM | 185 nM
AAAAGAGUAGGAUAUCUGACGCGAAACAUGAGGAUCACCCAUGUAGGGCGGUCCUGCUUAAGAGAAGGGCUCAAAU [Sodirira] (puzzle: Exclusion 5) | – | 88.9 nM | – | – | – | –

Sequence | apparent KD of MS2 coat protein [1] | apparent KD of MS2 coat protein [2] | apparent KD of MS2 coat protein [3] | apparent KD of MS2 coat protein (input ligand: FMN 200 uM) | apparent KD of MS2 coat protein (input ligand: none) | apparent KD of MS2 coat protein [4]
UCGCUGCGAGGAUAUACAUGAGGAUCACCCAUGUGCGGGUCCGGGUCUUCGUCCAUUAGUAGAAGGCGCAGUGA [JL Laongeedie mod 4] (Eterna round: R96, puzzle: Exclusion 3) | – | – | – | 705 nM | 119 nM | 112 nM
AAAAAGCGAGGAUAUGCAUAAGGACCCGGGAGGGAAAUCAAACAUGAGGAUCACCCAUGUAGAAGGCGCAAAAA [Exclss2-III] (puzzle: Exclusion 2) | – | 18.2 nM | – | – | – | –
AGUAGAUCUACGCUUGCGUGGAUCUGCUAUGCAGGUGUUACAUGAGGAUCACCCAUGUCCUCAUUUGUUCGUCUUAU [JL turnoff v2 99.15] (puzzle: Sensor v3, turn-off variant 2) | 135 nM | 111 nM | 185 nM | – | – | –
CCUGCACAUGAGGAUCACCCAUGUCAGGAUAUCUCGCCGCGAAGAGCAACACGGUAUUAGAGAAGGGACACGGG [Bimavees] (puzzle: Exclusion 1) | – | 24.5 nM | – | – | – | –
GGGUGCAGGCUGAGGUCCUACAUGAGGAUCACCCAUGUGGUCCGGUGACGUGAGUCACCGGACUUAGCUCGUCUUGU [salish99_S_TOV1_R5_009] (Eterna round: R97, puzzle: Sensor, turn-off variant 1) | – | – | – | 82 nM | 97.8 nM | –
AUUUACAAGCUAAGAUCCUACAUGAGGAUCACCCAUGUGGUCCGGUGACGUGAGUCACCGGACUUAGCUCGUCUUGA [salish99_S_TOV1_R5_082] (Eterna round: R97, puzzle: Sensor, turn-off variant 1) | – | – | – | 32.9 nM | 36.8 nM | –
GCCAGAGCAGGAUAUUCAAUAAUUCACAUGAGGAUCACCCAUGUCCAGCGAAAGCUGGAAGGAGAAGGGCUCUGGC [Fiskers Ex 5 - 3] (puzzle: Exclusion 5) | – | 14.5 nM | – | – | – | –
GAUUAUGCGAGCUUUAGGGACAUGAGGAUCACCCAUGUUCGUCUUAUUAGUCUAGGUGCACUAACAUACCUAAAUCU [JMF 35] (puzzle: Sensor v3, turn-off variant 1) | 20.7 nM | 36 nM | 21.3 nM | – | – | –
AAUAUGUGAGGAUAUGCUUUAAGAAGAAUGAGUUUGAAAUAACAUGAGGAUCACCCAUGUAGAAGGCGCUAAAA [Lollin - Beta 1] (puzzle: Exclusion 2) | 19.4 nM | 19.3 nM | 25.9 nM | – | – | –
CCACUGUCAGGAUAUCGUGCAUAACGUUUACAAUUUAUGUGCGAGAAGGGACAUGAGGAUCACCCAUGUAAACG [Omei Ex4 A28PK3] (Eterna round: R97, puzzle: Exclusion 4) | – | – | – | 227 nM | 203 nM | –
GCGCCAUCGUGAGAUGGCGUAUAUACAUGAGGAUCACCCAUGUAGGAUAUCGAUUGCUUUGCAGUCGAGAAGGGCAAGGUAUUU [JL ENG3 3.91] (Eterna round: R96, puzzle: Exclusion NG 3) | – | – | – | 34 nM | 33.8 nM | 25.5 nM
AGAUCUAGGACAGGAUAUAUGGAUGUCUUCAUCGAAGAUGAAGACAUUACAUGAGGAUCACCCAUGUAGAAGGGUCCUAGAUCA [Omei Exc(NG) 2Av3] (Eterna round: R96, puzzle: Exclusion NG 2) | – | – | – | 17.3 nM | 22.2 nM | 17.5 nM
UGUGCGUAUGUGAGGAUAUGCUGGUCCUUGGAUCGGCAGAAGGCACAUGAGGAUCACCCAUGUGGUGUCGUACU [salish99_Bmod_ex4_083] (puzzle: Brourd's mod of Exclusion 4) | – | 235 nM | – | – | – | –
UAUAUAUAGUAAGGAUAUGUAAUUAUUUGAUAAACAGAAGGUACUGACAUGAGGAUCACCCAUGUUUUAGUGUGGGCAUGUAGA [JMF's solution 42] (Eterna round: R96, puzzle: Exclusion NG 1) | – | – | – | – | – | 72.7 nM
GCACGGAGUGUAGGAUAUUAGUGCGAUUAGCACUGAGAAGGACAUGAGGAUCACCCAUGUGCUACCUCAAUUAGCCUUCCGUGC [Eli exng1 - 035] (Eterna round: R96, puzzle: Exclusion NG 1) | – | – | – | 21.8 nM | 19.7 nM | 16.5 nM
ACAAGCGAAAGGCUCGUCUUAUUUUUGUAGAGGUCCUAAACAUGAGGAUCACCCAUGUAGUGGCGAUGGUGGAGGUA [JR_SV3TOV2_Sub068] (puzzle: Sensor v3, turn-off variant 2) | 91.2 nM | 134 nM | 103 nM | – | – | –
UGAUUGUUUACCAGGUUAUACAUGAGGAUCACCCAUGUAGAUCCUACGUGCGCGUUAUACCGCUCGUCUUAUUCCCA [Sensor-V1 #77] (Eterna round: R97, puzzle: Sensor, turn-off variant 1) | – | – | – | 19.1 nM | 19.8 nM | –

From the supplement of paper PMC9170038
